In data set [1] the target is T1, Tel protelomerase (bacteriophage PY54) (UniProt Q8W5V1).
T1 sequence: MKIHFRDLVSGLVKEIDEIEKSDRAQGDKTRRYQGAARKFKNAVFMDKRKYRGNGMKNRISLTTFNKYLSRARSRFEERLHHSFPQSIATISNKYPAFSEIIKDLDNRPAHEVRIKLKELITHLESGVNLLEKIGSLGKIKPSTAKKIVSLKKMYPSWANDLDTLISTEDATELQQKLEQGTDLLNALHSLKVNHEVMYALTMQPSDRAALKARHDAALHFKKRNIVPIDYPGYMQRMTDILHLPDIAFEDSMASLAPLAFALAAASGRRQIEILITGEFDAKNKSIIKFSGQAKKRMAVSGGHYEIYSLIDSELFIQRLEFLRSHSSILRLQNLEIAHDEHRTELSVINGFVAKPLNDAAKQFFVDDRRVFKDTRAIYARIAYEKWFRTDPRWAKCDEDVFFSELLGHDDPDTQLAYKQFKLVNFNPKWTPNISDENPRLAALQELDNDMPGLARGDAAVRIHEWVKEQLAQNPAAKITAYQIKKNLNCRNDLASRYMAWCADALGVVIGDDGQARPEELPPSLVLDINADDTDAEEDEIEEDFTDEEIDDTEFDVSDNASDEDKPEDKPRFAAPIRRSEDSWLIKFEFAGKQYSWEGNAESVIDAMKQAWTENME
Kind of data set: cell_activity. The note with it: SS- integrant at lambda attB, 42 C; no processing of SS- plasmid.

The target of data set [2] is T2, TelN protelomerase (bacteriophage N15) (UniProt Q77WP1).
T2 sequence: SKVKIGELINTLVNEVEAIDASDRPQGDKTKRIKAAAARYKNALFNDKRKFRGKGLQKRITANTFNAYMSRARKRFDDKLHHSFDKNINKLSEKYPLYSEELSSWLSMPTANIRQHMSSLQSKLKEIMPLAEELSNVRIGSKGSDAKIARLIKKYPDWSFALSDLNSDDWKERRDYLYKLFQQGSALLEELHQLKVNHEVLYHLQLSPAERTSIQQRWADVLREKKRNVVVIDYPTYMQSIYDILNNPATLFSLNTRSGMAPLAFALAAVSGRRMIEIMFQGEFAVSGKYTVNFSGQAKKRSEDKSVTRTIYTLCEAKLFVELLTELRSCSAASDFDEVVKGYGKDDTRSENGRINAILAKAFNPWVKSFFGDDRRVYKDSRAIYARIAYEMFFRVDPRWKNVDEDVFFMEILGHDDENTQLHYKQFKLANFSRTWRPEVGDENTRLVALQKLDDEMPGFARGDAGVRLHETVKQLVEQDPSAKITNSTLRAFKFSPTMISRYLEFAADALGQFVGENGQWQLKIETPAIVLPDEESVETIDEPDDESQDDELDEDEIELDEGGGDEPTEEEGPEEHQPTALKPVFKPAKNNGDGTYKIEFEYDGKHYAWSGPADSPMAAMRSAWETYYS
Kind of data set: cell_activity. The note with it: SS- integrant at lambda attB, 42 C.

SS-minus plasmid (no target site): the activity (fraction viable) was 1 in data set [1] and 0.6 in data set [2].

The values are drawn from patent USRE49294.
